Assay results taken from US20180305451A1.

Tests used:
[1] = molecular target: putative molecular counterpart of HIDE1 on T cells; assay: flow cytometry on U937 human myeloid cell line, live singlets; PE tetramer at 3 µg/well (60 µg/ml); the text calls this no binding; Tetramer-EGFR in the same box reads 79.6
[2] = molecular target: putative molecular counterpart of HIDE1 on T cells; assay: FACS, tetramer on CD4+ T cells activated for 72 h
[3] = molecular target: putative molecular counterpart of HIDE1 on T cells; assay: flow cytometry on H9 human T cell line, live singlets; PE tetramer at 3 µg/well (60 µg/ml)
[4] = molecular target: putative molecular counterpart of HIDE1 on T cells; assay: flow cytometry on H9 human T cell line, live singlets; negative control PE tetramer at 3 µg/well (60 µg/ml)

Row | Substance | Geometric Mean (B2-A) [1] | fold increase in the Geo Mean compared to EGFR negative control [2] | Geometric Mean (B2-A) [3] | Geometric Mean (B2-A) [4]
1 | HIDE1 tetramer (from UniProt A8MVS5 20-117) | 86.2 | 3 fold | 731 | 
2 | Tetramer-EGFR (from UniProt P00533) |  |  |  | 82.1
